In US20170121425A1 (ACADEMIA SINICA, published 2017):

Columns and labels:
[1] = target: Fc region of human IgE (ε.Fc 2-4), Ser226 to Gly599, N265Q and N371Q (human) (UniProt P01854); assay: ELISA, ε.Fc 2-4 coated, antibody titrated
[2] = target: Fc region of human IgE (ε.Fc 2-4), Ser226 to Gly599, N265Q and N371Q (human) (UniProt P01854); assay: ELISA, ε.Fc 2-4 coated on the plate, antibody titrated, OD450
[3] = target: Fc region of human IgE (ε.Fc 2-4), Ser226 to Gly599, N265Q and N371Q (human) (UniProt P01854); assay: competitive ELISA on coated ε.Fc 2-4; competitor HRP-conjugated c8D6
[4] = target: T1, mIgE.FcS (CH2-cytoplasmic tail of the short form of human membrane ε chain) on Ramos cells (human, UniProt P01854-3 104-494, limits assumed); assay: flow cytometry on mIgE.FcS-expressing Ramos cells; c8D6, not hu8D6
T1 construct: domain: CH2-cytoplasmic tail of the short form of membrane ε chain; also called mIgE.FcS Ramos
Protocol: (§1) Ramos cells expressing mIgE.FcL or mIgE.FcS were resuspended in FACS buffer (1% FBS and 0.1% sodium azide in 1×PBS) at a cell density of 2×10⁶ cells/mL. […] Bound antibodies were detected by FITC-labeled goat IgG specific for human IgG-Fc (Caltag Laboratories). The stained cells were analyzed on a FACS Canto II flow cytometer (BD Biosciences). The geometric means of fluorescence intensity for the binding of antibodies to Ramos cell lines were analyzed using the FCSExpress software (DeNono software). The EC₅₀ was calculated using the Prism software.

[5] = target: T2, mIgE.FcL (CH2-cytoplasmic tail of the long form of human membrane ε chain) on Ramos cells (human, UniProt P01854 104-546, limits assumed); assay: flow cytometry on mIgE.FcL-expressing Ramos cells, FITC anti-human IgG-Fc detection, geometric mean intensity
T2 construct: domain: CH2-cytoplasmic tail of the long form of membrane ε chain; also called mIgE.FcL Ramos
Protocol: as §1

[6] = target: T1, mIgE.FcS (CH2-cytoplasmic tail of the …); assay: flow cytometry on mIgE.FcS-expressing Ramos cells, FITC anti-human IgG-Fc detection, geometric mean intensity
Protocol: as §1

[7] = target: Fc region of human IgE (ε.Fc 2-4), Ser226 to Gly599, N265Q and N371Q (human) (UniProt P01854); assay: competition ELISA on coated ε.Fc 2-4; competitor HRP-conjugated c8D6 at fixed dilution, unconjugated antibody titrated

Chain of Fc region of human IgE (ε.Fc 2-4), Ser226 to Gly599, N265Q and N371Q (human) (P01854 106-427, stated change not applied): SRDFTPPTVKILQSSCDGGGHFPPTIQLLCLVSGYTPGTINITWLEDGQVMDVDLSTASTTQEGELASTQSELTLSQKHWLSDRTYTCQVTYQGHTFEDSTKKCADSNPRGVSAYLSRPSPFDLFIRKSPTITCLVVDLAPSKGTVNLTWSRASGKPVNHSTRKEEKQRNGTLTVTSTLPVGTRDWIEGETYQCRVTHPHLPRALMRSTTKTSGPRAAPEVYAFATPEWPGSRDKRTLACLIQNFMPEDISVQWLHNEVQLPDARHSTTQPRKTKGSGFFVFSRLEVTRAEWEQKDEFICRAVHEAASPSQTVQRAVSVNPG
T1 sequence (P01854 other isoform, or with tags, fused parts or gaps limits assumed): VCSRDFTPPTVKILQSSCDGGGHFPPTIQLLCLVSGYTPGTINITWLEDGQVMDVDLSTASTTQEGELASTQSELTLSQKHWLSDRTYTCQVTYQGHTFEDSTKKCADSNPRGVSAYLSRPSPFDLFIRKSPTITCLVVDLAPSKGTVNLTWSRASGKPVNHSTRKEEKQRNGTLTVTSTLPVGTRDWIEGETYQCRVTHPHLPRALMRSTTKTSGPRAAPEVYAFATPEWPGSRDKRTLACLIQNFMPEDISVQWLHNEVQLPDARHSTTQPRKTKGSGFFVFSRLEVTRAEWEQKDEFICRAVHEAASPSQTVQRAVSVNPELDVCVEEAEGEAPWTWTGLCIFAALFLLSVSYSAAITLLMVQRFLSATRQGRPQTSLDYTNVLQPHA
T2 sequence (P01854 104-546 limits assumed, form in doubt): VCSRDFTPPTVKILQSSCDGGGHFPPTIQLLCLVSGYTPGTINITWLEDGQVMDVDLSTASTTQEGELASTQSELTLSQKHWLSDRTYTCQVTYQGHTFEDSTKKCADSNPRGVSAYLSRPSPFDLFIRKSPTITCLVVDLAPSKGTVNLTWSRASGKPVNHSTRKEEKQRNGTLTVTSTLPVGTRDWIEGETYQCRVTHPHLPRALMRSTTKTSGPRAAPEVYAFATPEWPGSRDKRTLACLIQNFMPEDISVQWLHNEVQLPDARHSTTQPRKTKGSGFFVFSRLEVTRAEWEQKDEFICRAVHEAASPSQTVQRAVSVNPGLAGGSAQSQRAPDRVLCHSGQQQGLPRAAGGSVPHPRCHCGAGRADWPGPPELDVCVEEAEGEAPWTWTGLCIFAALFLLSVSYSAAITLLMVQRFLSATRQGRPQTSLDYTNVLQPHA

EC50 [1]: 0.116 nM
EC50 (read off the curve) [2]: 0.02 µg/mL
IC50 [3]: 2.28 nM
EC50 [4]: 0.3 nM
EC50 (read off the curve) [5]: ~0.03 µg/mL
EC50 (read off the curve) [6]: ~0.04 µg/mL
IC50 (read off the curve) [7]: 0.4 µg/mL
B1: chimeric 8D6 antibody (antibody, V domains shown)
VH: QVQLQQSGAELAKPGASVMLSCKASGYTFNGYWMHWVKQRPGQDLEWIGYINPTTGHTEYNQKFKDKATLTADESSNTAYIELSSLTSDDSAVYYCARQEYRHSWFAYWGQGTLVTVSA
VL: DIVLTQSPASLAVSLGQRATISCKASQSVDYDGDTYMNWYHQKPGQPPKLLIYAASNLDSGIPARFSGSGSGTDFTLNIHPVEEEDAATYYCQQTNEDPWTFGGGTKLEIK
notes: c8D6 is the chimeric form of 8D6 with human constant regions (detected with anti-human IgG-Fc); also called parent c8D6 antibody; HRP-conjugated c8D6
